Changes are numbered by the printed parent chain. Where no end group is shown, it is not given here. The star is where a group is joined. 5FAM = O=C1OC2(c3ccc(O)cc3Oc3cc(O)ccc32)c2ccc(C(=O)*)cc21
Assays:
Test in all cases: FP
MBP-SNX17 D467X = molecular target: T1, MBP-SNX17 D467X (UniProt Q15036 1-466)
T1 chain: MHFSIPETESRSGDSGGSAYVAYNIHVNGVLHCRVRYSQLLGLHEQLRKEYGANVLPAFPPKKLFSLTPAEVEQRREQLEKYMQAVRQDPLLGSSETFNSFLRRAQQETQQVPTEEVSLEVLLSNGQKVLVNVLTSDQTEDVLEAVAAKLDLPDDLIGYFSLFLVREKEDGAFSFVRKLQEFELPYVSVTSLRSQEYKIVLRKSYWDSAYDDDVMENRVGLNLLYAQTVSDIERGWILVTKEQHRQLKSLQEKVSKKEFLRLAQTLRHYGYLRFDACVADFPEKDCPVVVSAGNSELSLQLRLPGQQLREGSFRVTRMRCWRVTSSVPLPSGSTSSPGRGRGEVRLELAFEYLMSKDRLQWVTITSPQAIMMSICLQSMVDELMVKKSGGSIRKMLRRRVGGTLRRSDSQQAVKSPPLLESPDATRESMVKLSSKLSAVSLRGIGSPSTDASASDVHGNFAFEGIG

MBP-SNX17 L470G = molecular target: T2, MBP-SNX17 L470G (UniProt Q15036 1-470, L470G)
T2 sequence: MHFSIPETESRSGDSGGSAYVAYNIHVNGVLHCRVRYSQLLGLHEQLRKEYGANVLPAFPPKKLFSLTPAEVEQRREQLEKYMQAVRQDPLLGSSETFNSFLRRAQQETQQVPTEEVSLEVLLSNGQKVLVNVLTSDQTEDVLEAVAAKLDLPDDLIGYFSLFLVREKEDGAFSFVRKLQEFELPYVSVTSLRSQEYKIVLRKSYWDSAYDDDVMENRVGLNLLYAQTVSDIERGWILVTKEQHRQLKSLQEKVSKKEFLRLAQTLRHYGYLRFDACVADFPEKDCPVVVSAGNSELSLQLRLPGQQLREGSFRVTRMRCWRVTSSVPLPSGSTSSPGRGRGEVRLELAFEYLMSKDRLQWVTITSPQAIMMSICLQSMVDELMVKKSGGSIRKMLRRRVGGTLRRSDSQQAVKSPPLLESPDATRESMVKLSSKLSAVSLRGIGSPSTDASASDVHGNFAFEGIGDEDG

[1] = molecular target: T3, MBP-SNX17 (full-length, wild-type) (UniProt Q15036 1-470)
T3 chain: T2 sequence with G470L

B1: Peptide L2_(14mer) (peptide)
peptide: 5FAM-KLITYDNPAYEGID
Kd (MBP-SNX17 D467X): 3200 nM
Kd (MBP-SNX17 L470G): 1100 nM
Kd [1]: 1100 nM

B2: Peptide LRP1_(14mer) (peptide)
peptide: 5FAM-MNVEIGNPTYKMYE
Kd (MBP-SNX17 D467X): 8500 nM
Kd (MBP-SNX17 L470G): 2800 nM
Kd [1]: 3000 nM
